Measured values taken from publication PMC248471 (Biological Procedures Online, 2003).
Like-named read-outs stand apart in the source and are kept apart here.

How the values were obtained:
[1] = target: T1, 72 kDa heat shock protein (HSP72), recombinant human (human, UniProt P0DMV8 1-641); assay: SPR
[2] = target: T1, 72 kDa heat shock protein (HSP72), …; assay: SPR; remark: listed apart in the source

T1 sequence (P0DMV8 whole entry): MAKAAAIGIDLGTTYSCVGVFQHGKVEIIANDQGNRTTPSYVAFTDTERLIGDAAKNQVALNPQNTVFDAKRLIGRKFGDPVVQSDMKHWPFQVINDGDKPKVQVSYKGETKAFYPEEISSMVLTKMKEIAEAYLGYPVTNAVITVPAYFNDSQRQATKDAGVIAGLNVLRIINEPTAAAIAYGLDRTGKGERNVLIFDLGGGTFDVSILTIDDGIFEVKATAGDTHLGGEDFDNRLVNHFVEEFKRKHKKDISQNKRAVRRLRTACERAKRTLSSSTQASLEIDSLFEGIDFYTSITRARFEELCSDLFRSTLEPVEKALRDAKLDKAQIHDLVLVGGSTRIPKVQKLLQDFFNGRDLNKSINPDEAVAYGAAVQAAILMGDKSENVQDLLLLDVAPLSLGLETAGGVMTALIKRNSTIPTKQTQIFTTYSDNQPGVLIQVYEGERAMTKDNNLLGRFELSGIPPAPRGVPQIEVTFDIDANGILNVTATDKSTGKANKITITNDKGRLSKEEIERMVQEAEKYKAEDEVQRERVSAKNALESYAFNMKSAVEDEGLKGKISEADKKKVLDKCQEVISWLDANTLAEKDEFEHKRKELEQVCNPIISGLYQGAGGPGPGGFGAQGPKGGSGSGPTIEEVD

B1: Peptide N, the extreme carboxyl terminus (15 amino acids) of the Edmonston MV N protein (peptide)
peptide: DTDTPIVYNDRNLLD
Kd [1]: 1000 nM
kon [1]: 357 M⁻¹ s⁻¹
Kd [2]: 4000 nM
